According to article PMC4619763, “A Novel Highly Thermostable Multifunctional Beta-Glycosidase from Crenarchaeon Acidilobus saccharovorans” (Archaea, 2015):
Each block holds one molecule with its values, some of them ahead of it.

How the values were obtained:
Asac_1390 = biological target: T1, Asac_1390 (Acidilobus saccharovorans, UniProt D9PZ08); assay: oNPGal hydrolysis, Cornish-Bowden and Dixon plots; assay type: biochemical; conditions: mixed inhibition, dissociation constant of the EIS complex; otherwise as the row above
T1 construct: full length, 490 residues, about 55 kDa on SDS-PAGE; pQE60 NcoI/BglII, expressed in E. coli DLT1270 pRARE2; purified by double heat treatment; no secretion signal; no tag mentioned (reverse primer carries the stop codon)
T1 sequence (D9PZ08 1-490): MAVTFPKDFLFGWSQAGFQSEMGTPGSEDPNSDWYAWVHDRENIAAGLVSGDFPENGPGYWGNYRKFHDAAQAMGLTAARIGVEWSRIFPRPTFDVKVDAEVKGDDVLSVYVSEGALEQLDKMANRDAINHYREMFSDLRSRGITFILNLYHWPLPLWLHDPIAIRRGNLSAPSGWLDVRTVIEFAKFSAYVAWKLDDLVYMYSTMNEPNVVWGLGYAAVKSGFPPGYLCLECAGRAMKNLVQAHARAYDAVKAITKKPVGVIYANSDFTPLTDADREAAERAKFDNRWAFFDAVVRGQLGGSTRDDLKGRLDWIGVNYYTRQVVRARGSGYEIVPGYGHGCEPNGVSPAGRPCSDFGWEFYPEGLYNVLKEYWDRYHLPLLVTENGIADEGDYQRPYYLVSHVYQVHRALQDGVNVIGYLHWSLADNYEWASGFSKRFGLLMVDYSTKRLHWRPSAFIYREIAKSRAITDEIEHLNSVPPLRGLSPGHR

purified protein [1] = substrate: O=[N+]([O-])c1ccc(O[C@@H]2O[C@H](CO)[C@@H](O)[C@H](O)[C@@H]2O)cc1; assay: purified protein; assay type: biochemical, Acidilobus saccharovorans; conditions: 0.1 M sodium phosphate pH 7.0, 93°C
purified protein [2] = substrate: O=[N+]([O-])c1ccc(O[C@@H]2O[C@H](CO)[C@H](O)[C@H](O)[C@H]2O)cc1; assay: purified protein; assay type: biochemical, Acidilobus saccharovorans; conditions: 0.1 M sodium phosphate pH 7.0, 93°C
purified protein [3] = substrate: O=[N+]([O-])c1ccc(O[C@@H]2O[C@H](CO)[C@@H](O)[C@H](O)[C@H]2O)cc1; assay: purified protein; assay type: biochemical, Acidilobus saccharovorans; conditions: 0.1 M sodium phosphate pH 7.0, 93°C
purified protein [4] = substrate: O=[N+]([O-])c1ccccc1O[C@@H]1O[C@H](CO)[C@H](O)[C@H](O)[C@H]1O; assay: purified protein; assay type: biochemical, Acidilobus saccharovorans; conditions: 0.1 M sodium phosphate pH 7.0, 93°C
purified protein [5] = substrate: O=[N+]([O-])c1ccc(O[C@@H]2OC[C@@H](O)[C@H](O)[C@H]2O)cc1; assay: purified protein; assay type: biochemical, Acidilobus saccharovorans; conditions: 0.1 M sodium phosphate pH 7.0, 93°C

K i′ (Asac_1390): 158 mM
Molecule: OC[C@H]1OC(O)[C@H](O)[C@@H](O)[C@@H]1O (stereo partly drawn) [glucose]

B1: Asac_1390 (Acidilobus saccharovorans 345-15) (protein)
chain: MAVTFPKDFLFGWSQAGFQSEMGTPGSEDPNSDWYAWVHDRENIAAGLVSGDFPENGPGYWGNYRKFHDAAQAMGLTAARIGVEWSRIFPRPTFDVKVDAEVKGDDVLSVYVSEGALEQLDKMANRDAINHYREMFSDLRSRGITFILNLYHWPLPLWLHDPIAIRRGNLSAPSGWLDVRTVIEFAKFSAYVAWKLDDLVYMYSTMNEPNVVWGLGYAAVKSGFPPGYLCLECAGRAMKNLVQAHARAYDAVKAITKKPVGVIYANSDFTPLTDADREAAERAKFDNRWAFFDAVVRGQLGGSTRDDLKGRLDWIGVNYYTRQVVRARGSGYEIVPGYGHGCEPNGVSPAGRPCSDFGWEFYPEGLYNVLKEYWDRYHLPLLVTENGIADEGDYQRPYYLVSHVYQVHRALQDGVNVIGYLHWSLADNYEWASGFSKRFGLLMVDYSTKRLHWRPSAFIYREIAKSRAITDEIEHLNSVPPLRGLSPGHR
notes: full length, 490 residues, about 55 kDa on SDS-PAGE; pQE60 NcoI/BglII, expressed in E. coli DLT1270 pRARE2; purified by double heat treatment; no secretion signal; no tag mentioned (reverse primer carries the stop codon)
Km (purified protein [1]): 2400 µM | Vmax (purified protein [1]): 62.8 µmol/min/mg | kcat (purified protein [1]): 58.2 s⁻¹ | kcat/Km (purified protein [1]): 24200 M⁻¹ s⁻¹ | Km (purified protein [2]): 2900 µM | Vmax (purified protein [2]): 499 µmol/min/mg | kcat (purified protein [2]): 462 s⁻¹ | kcat/Km (purified protein [2]): 160000 M⁻¹ s⁻¹ | Km (purified protein [3]): 240 µM | Vmax (purified protein [3]): 344 µmol/min/mg | kcat (purified protein [3]): 318 s⁻¹ | kcat/Km (purified protein [3]): 1.33e+06 M⁻¹ s⁻¹ | Km (purified protein [4]): 2000 µM | Vmax (purified protein [4]): 469 µmol/min/mg | kcat (purified protein [4]): 434 s⁻¹ | kcat/Km (purified protein [4]): 217000 M⁻¹ s⁻¹ | Km (purified protein [5]): 4650 µM | Vmax (purified protein [5]): 124 µmol/min/mg | kcat (purified protein [5]): 115 s⁻¹ | kcat/Km (purified protein [5]): 24600 M⁻¹ s⁻¹
